Test results published in patent US20260078171A1.

VYD224 (antibody), sequence (VH): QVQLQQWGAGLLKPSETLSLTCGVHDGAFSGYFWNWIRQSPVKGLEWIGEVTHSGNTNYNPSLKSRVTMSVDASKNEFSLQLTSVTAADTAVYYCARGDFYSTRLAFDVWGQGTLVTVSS
VYD224 (antibody), sequence (VL): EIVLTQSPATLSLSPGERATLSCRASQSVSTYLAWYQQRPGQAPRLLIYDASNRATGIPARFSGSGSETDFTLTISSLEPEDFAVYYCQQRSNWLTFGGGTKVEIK
VYD222 (antibody), sequence (VH): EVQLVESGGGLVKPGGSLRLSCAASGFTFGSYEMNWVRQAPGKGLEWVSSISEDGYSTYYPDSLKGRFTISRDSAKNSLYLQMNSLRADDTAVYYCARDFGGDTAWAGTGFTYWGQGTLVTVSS
VYD222 (antibody), sequence (VL): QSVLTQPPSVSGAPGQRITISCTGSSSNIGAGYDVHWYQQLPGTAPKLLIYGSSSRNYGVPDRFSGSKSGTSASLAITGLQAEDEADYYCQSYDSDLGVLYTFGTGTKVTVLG
ADI-58125 (antibody), sequence (VH): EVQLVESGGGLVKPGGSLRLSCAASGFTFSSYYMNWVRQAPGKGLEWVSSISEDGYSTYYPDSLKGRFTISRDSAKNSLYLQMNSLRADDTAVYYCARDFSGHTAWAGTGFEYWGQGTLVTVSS
ADI-58125 (antibody), sequence (VL): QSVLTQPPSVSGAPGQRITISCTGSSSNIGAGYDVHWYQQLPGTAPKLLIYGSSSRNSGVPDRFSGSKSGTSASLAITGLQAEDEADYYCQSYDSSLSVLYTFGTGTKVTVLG
VYD223 (antibody), sequence (VH): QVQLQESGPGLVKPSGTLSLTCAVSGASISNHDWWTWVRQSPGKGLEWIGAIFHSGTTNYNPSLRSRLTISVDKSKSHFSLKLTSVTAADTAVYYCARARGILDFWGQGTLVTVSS
VYD223 (antibody), sequence (VL): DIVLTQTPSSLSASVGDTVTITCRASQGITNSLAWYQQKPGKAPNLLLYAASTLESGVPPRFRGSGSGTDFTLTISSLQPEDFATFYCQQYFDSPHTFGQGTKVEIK

What follows are substances tested against SARS-CoV-2 Wild-type (D614G) spike glycoprotein (SARS-CoV-2) (UniProt P0DTC2) (assay: cell-based or functional assay).
Work on VYD224 (antibody) yielded an IC50, authentic virus neutralization of 0.01 µg/mL, an IC50, lentivirus-based pseudovirus neutralization of 0.03 µg/mL and an IC90, authentic virus neutralization of 0.037 µg/mL.
Work on ADI-58125 (antibody) yielded an IC50, authentic virus neutralization of 0.052 µg/mL and an IC90, authentic virus neutralization of 0.192 µg/mL.
In the case of VYD223 (antibody), the IC50, authentic virus neutralization was 0.012 µg/mL and the IC90, authentic virus neutralization was 0.014 µg/mL.
LY-CoV1404 (antibody) gave an IC50, authentic virus neutralization of 0.021 µg/mL and an IC90, authentic virus neutralization of 0.09 µg/mL.
For CoV2-2130 (antibody), the IC50, authentic virus neutralization was 0.016 µg/mL and the IC90, authentic virus neutralization was 0.074 µg/mL.
For VYD222 (antibody), the IC50, authentic virus neutralization was 0.033 µg/mL, the IC50, lentivirus-based pseudovirus neutralization was 0.03 µg/mL and the IC90, authentic virus neutralization was 0.193 µg/mL.
